The record followed here is patent publication US20260063625A1, “COMPOSITIONS FOR AND METHODS OF DETECTING FOOD TOXINS” (priority 2022, published 2026).

Data set [1] is classed as binding. The following applies: 1.1 μM Sxph, 0-20 μM STX.
A short description of data set [2]: Fluorescence polarization (FP) binding to fluorescein labeled STX. The following applies: T = 298K; for […]G (kcal mol^−1) relative to wild-type RcSxph: […]G = RT ln (KdSxph mutant/KdSxph). The protocol:
[…]; Measurements were performed at 25° C. on a Synergy H1 microplate reader (BioTek) using the polarization filter setting (excitation 485 nm, emission 528 nm). […]. The dissociation constants were calculated using GraphPad Prism by fitting fluorescence millipolarization (mP=P·10^−3, where P is polarization) as a function of Sxph concentration using the equation: P={(Pbound−Pfree) [Sxph]/(Kd+[Sxph])}+Pfree, where P is the polarization measured at a given Sxph concentration, Pfree is the […], and Pbound is the maximum polarization of Sxph bound by F-STX (Rossi and Taylor, Hansen et al.).
A general note: Polarisation of emitted light reports the rotation of a fluorescent probe.

Data set [3] can be described thus: Isothermal titration calorimetry (ITC) of STX into Sxph. The format is binding. The following applies: 25° C. The protocol: ITC measurements were performed at 25° C. using a MicroCal PEAQ-ITC calorimeter (Malvern Panalytical). […]. This STX stock was diluted with the SEC buffer to prepare 100 μM or 300 μM STX solutions having a final buffer composition of 135 mM NaCl, 9 mM HEPES, pH 7.4. […]. The calorimetric experiment settings were: reference power, 5 μcal/s; spacing between injections, 150 s; stir speed 750 rpm; and feedback mode, high. Data were analyzed using MicroCal PEAQ-ITC Analysis Software (Malvern Panalytical) using a single binding site model. The heat of dilution from titrations of 100 μM STX in 135 mM NaCl, 9 mM HEPES, pH 7.4 into 135 mM NaCl, 9 mM HEPES, pH 7.4 was subtracted from each experiment to correct the baseline.

Another data set concerns PtNaV1.4. The data set is described as follows: Two-electrode voltage clamp: Sxph rescue of PtNaV1.4 from STX block in Xenopus oocytes. The format is cell-based, Phyllobates terribilis. The following applies: [Sxph]:[STX] ratio, 100 nM STX. In general terms: Two-electrode voltage clamp holds a large cell at a set potential and records current.

B1: NpSxph: Saxiphilin of Nanorana parkeri, High Himalaya frog, SEQ ID NO:2 (protein, listed as Nanorana parkeri)
chain: MALTFHTALYFTIVGLSFAASDARHVQWCTISHLEQKKCNDLVGSCNVPDITLACVYRSSTENCMAAIKDGQADAMFLDSGDVYKASLDHYNLKPIIAEPYSLHRELTKCLKHRQESLGGDKMVKGRYIPQCDEKGNYHPVQCHASTGYCWCVNANGEKIEGTNTTPVQTPPTCPSQVLTKCLKERQEALGGKRIAIGRYIPQCDEQGNYRPMQCHGSTGYCWCVNAIGEKIEGTNTPPGNTQPTCQSHDWDTCHYAVAVVKNSSTFQFGQLKGKRSCHSGLSKTDGWNAPVNVFVEKKLLPWDGLAKGSIERAVSKFFSASCIPGATETNLCKQCIGEEEKKCKSSHDEPYYGDHGAFRCLQEDKGDVAFLKNTALPDEHSGVYELLCPDNTRKPLNKYKECNLGKVPADAVVTRKAGDKTKDINDFLLEAQKKKCKLFGSPHGKDLMFDDSTTHLAPLPSEIDAFFFLGVKWYNAMKALTEDVKLPSKNKVRWCTINKPEMMKCKDWAAVSGGAIACTEASCPEHCVKQILKGEADAVTLDVQYMYMALMCGLLPAVEEYPNKDDFHPCQIPGSTIKDFGTKRAVALVKKSNKDIKWNNLKGKKSCHTHVGDIPGWVIPAGLISNQNDNIDIESFFGESCAPGSDTNSKLCKLCIGDPENPKASTRCSLSDKEAYYGNEGAFRCLVEKGDVAFVPHTVVFANTDGKNPAEWAKDLKSEDFEILCLDGSRAPVTNYRGCNLSGLPPRAIVTREESVSDVVRILINQQSLYGRNGFEKDMFQMFSSAKGQNLLFNDETQCLIEFDRQPKDIMEDYFGVRYYTAVYSASRSAVPSELIPACTFKHC
In the case of B1, in data set [1], the “DTm ([…]Tm=TmSxph+20 μM toxin−TmSxph), STX” value is 3.6 °C. Further, in data set [2] ([…]G = RT ln (Kd(XSxph)/Kd(RcSxph))), the “[…]G (kcal mol^−1) relative to RcSxph” value was -1.60 kcal/mol. In addition, in data set [3], the “[…]G” value was -11.8 ± 0.1 kcal/mol; the “[…]H (kcal mol^−1), binding enthalpy” value was -18.7 ± 0.2 kcal/mol; the “[…]S (cal mol^−1 K^−1)” value is −23.2 ± 0.8 cal mol^−1 K^−1. Moreover, the “[…]H (kcal mol^−1), binding enthalpy” value in data set [3] (listed as NpSxph WT) was -18.7 ± 0.2 kcal/mol.

B2: D785N: RcSxph mutant D785N (protein)
chain: MAPTFQTALFFTIISLSFAAPNAKQVRWCAISDLEQKKCNDLVGSCNVPDITLVCVLRSSTEDCMTAIKDGQADAMFLDSGEVYEASKDPYNLKPIIAEPYSSNRDLQKCLKERQQALAKKMIGHYIPQCDEKGNYQPQQCHGSTGHCWCVNAMGEKISGTNTPPGQTRATCERHELPKCLKERQVALGGDEKVLGRFVPQCDEKGNYEPQQFHGSTGYSWCVNAIGEEIAGTKTPPGKIPATCQKHDLVTTCHYAVAMVKKSSAFQFNQLKGKRSCHSGVSKTDGWKALVTVLVEKKLLSWDGPAKESIQRAMSKFFSVSCIPGATQTNLCKQCKGEEGKNCKNSHDEPYYGNYGAFRCLKEDMGDVAFLRSTALSDEHSEVYELLCPDNTRKPLNKYKECNLGTVPAGTVVTRKISDKTEDINNFLMEAQKRQCKLFSSAHGKDLMFDDSTLQLALLSSEVDAFLYLGVKLFHAMKALTGDAHLPSKNKVRWCTINKLEKMKCDDWSAVSGGAIACTEASCPKGCVKQILKGEADAVKLEVQYMYEALMCGLLPAVEEYHNKDDFGPCKTPGSPYTDFGTLRAVALVKKSNKDINWNNIKGKKSCHTGVGDIAGWVIPVSLIRRQNDNSDIDSFFGESCAPGSDTKSNLCKLCIGDPKNSAANTKCSLSDKEAYYGNQGAFRCLVEKGDVAFVPHTVVFENTDGKNPAVWAKNLKSEDFELLCLDGSRAPVSNYKSCKLSGIPPPAIVTREESISDVVRIVANQQSLYGRKGFEKDMFQLFSSNKGNNLLFNDNTQCLITFNRQPKDIMEDYFGKPYYTTVYGASRSAMSSELISACTIKHC
B2: in data set [1], the “DTm ([…]Tm=TmSxph+20 μM toxin−TmSxph), STX” value is recorded as “DTm increases relative to wild-type”. Moreover, in data set [2], the “[…]G (kcal mol^−1) relative to wild-type RcSxph” value was -0.30 kcal/mol.

B3: F561A: RcSxph mutant F561A (protein)
chain: MAPTFQTALFFTIISLSFAAPNAKQVRWCAISDLEQKKCNDLVGSCNVPDITLVCVLRSSTEDCMTAIKDGQADAMFLDSGEVYEASKDPYNLKPIIAEPYSSNRDLQKCLKERQQALAKKMIGHYIPQCDEKGNYQPQQCHGSTGHCWCVNAMGEKISGTNTPPGQTRATCERHELPKCLKERQVALGGDEKVLGRFVPQCDEKGNYEPQQFHGSTGYSWCVNAIGEEIAGTKTPPGKIPATCQKHDLVTTCHYAVAMVKKSSAFQFNQLKGKRSCHSGVSKTDGWKALVTVLVEKKLLSWDGPAKESIQRAMSKFFSVSCIPGATQTNLCKQCKGEEGKNCKNSHDEPYYGNYGAFRCLKEDMGDVAFLRSTALSDEHSEVYELLCPDNTRKPLNKYKECNLGTVPAGTVVTRKISDKTEDINNFLMEAQKRQCKLFSSAHGKDLMFDDSTLQLALLSSEVDAFLYLGVKLFHAMKALTGDAHLPSKNKVRWCTINKLEKMKCDDWSAVSGGAIACTEASCPKGCVKQILKGEADAVKLEVQYMYEALMCGLLPAVEEYHNKDDFGPCKTPGSPYTDAGTLRAVALVKKSNKDINWNNIKGKKSCHTGVGDIAGWVIPVSLIRRQNDNSDIDSFFGESCAPGSDTKSNLCKLCIGDPKNSAANTKCSLSDKEAYYGNQGAFRCLVEKGDVAFVPHTVVFENTDGKNPAVWAKNLKSEDFELLCLDGSRAPVSNYKSCKLSGIPPPAIVTREESISDVVRIVANQQSLYGRKGFEKDMFQLFSSNKGNNLLFNDNTQCLITFDRQPKDIMEDYFGKPYYTTVYGASRSAMSSELISACTIKHC
As for B3, the “[…]G (kcal mol^−1) relative to wild-type RcSxph” value in data set [2] was found to be 0.48 kcal/mol. Besides, in data set [3], the “[…]G” value was -10.8 ± 0.1 kcal/mol; the “[…]H (kcal mol^−1), binding enthalpy” value is -12.7 ± 0.2 kcal/mol; the “[…]S (cal mol^−1 K^−1)” value is on record as −6.6 ± 0.9 cal mol^−1 K^−1.

B4: Y558I: RcSxph mutant, isoleucine for tyrosine at position 558 (protein)
chain: MAPTFQTALFFTIISLSFAAPNAKQVRWCAISDLEQKKCNDLVGSCNVPDITLVCVLRSSTEDCMTAIKDGQADAMFLDSGEVYEASKDPYNLKPIIAEPYSSNRDLQKCLKERQQALAKKMIGHYIPQCDEKGNYQPQQCHGSTGHCWCVNAMGEKISGTNTPPGQTRATCERHELPKCLKERQVALGGDEKVLGRFVPQCDEKGNYEPQQFHGSTGYSWCVNAIGEEIAGTKTPPGKIPATCQKHDLVTTCHYAVAMVKKSSAFQFNQLKGKRSCHSGVSKTDGWKALVTVLVEKKLLSWDGPAKESIQRAMSKFFSVSCIPGATQTNLCKQCKGEEGKNCKNSHDEPYYGNYGAFRCLKEDMGDVAFLRSTALSDEHSEVYELLCPDNTRKPLNKYKECNLGTVPAGTVVTRKISDKTEDINNFLMEAQKRQCKLFSSAHGKDLMFDDSTLQLALLSSEVDAFLYLGVKLFHAMKALTGDAHLPSKNKVRWCTINKLEKMKCDDWSAVSGGAIACTEASCPKGCVKQILKGEADAVKLEVQYMYEALMCGLLPAVEEYHNKDDFGPCKTPGSPITDFGTLRAVALVKKSNKDINWNNIKGKKSCHTGVGDIAGWVIPVSLIRRQNDNSDIDSFFGESCAPGSDTKSNLCKLCIGDPKNSAANTKCSLSDKEAYYGNQGAFRCLVEKGDVAFVPHTVVFENTDGKNPAVWAKNLKSEDFELLCLDGSRAPVSNYKSCKLSGIPPPAIVTREESISDVVRIVANQQSLYGRKGFEKDMFQLFSSNKGNNLLFNDNTQCLITFDRQPKDIMEDYFGKPYYTTVYGASRSAMSSELISACTIKHC
As for B4, the “[…]G (kcal mol^−1) relative to wild-type RcSxph” value in data set [2] was -1.07 kcal/mol. Moreover, in data set [3], the “[…]G” value is -12.2 ± 0.3 kcal/mol; the “[…]H (kcal mol^−1), binding enthalpy” value is -15.5 ± 0.3 kcal/mol; the “[…]S (cal mol^−1 K^−1)” value is −10.5 ± 0.6 cal mol^−1 K^−1. Moreover, the “Effective Rescue Ratio50 (ERR50)” value in the data set with PtNaV1.4 stood at 0.81±0.01.

B5: D794A: RcSxph mutant D794A (protein)
chain: MAPTFQTALFFTIISLSFAAPNAKQVRWCAISDLEQKKCNDLVGSCNVPDITLVCVLRSSTEDCMTAIKDGQADAMFLDSGEVYEASKDPYNLKPIIAEPYSSNRDLQKCLKERQQALAKKMIGHYIPQCDEKGNYQPQQCHGSTGHCWCVNAMGEKISGTNTPPGQTRATCERHELPKCLKERQVALGGDEKVLGRFVPQCDEKGNYEPQQFHGSTGYSWCVNAIGEEIAGTKTPPGKIPATCQKHDLVTTCHYAVAMVKKSSAFQFNQLKGKRSCHSGVSKTDGWKALVTVLVEKKLLSWDGPAKESIQRAMSKFFSVSCIPGATQTNLCKQCKGEEGKNCKNSHDEPYYGNYGAFRCLKEDMGDVAFLRSTALSDEHSEVYELLCPDNTRKPLNKYKECNLGTVPAGTVVTRKISDKTEDINNFLMEAQKRQCKLFSSAHGKDLMFDDSTLQLALLSSEVDAFLYLGVKLFHAMKALTGDAHLPSKNKVRWCTINKLEKMKCDDWSAVSGGAIACTEASCPKGCVKQILKGEADAVKLEVQYMYEALMCGLLPAVEEYHNKDDFGPCKTPGSPYTDFGTLRAVALVKKSNKDINWNNIKGKKSCHTGVGDIAGWVIPVSLIRRQNDNSDIDSFFGESCAPGSDTKSNLCKLCIGDPKNSAANTKCSLSDKEAYYGNQGAFRCLVEKGDVAFVPHTVVFENTDGKNPAVWAKNLKSEDFELLCLDGSRAPVSNYKSCKLSGIPPPAIVTREESISDVVRIVANQQSLYGRKGFEKDMFQLFSSNKGNNLLFNDNTQCLITFDRQPKDIMEAYFGKPYYTTVYGASRSAMSSELISACTIKHC
Regarding B5, in data set [1], the “DTm ([…]Tm=TmSxph+20 μM toxin−TmSxph), STX” value was “complete loss of the thermal shift”. The “[…]G (kcal mol^−1) relative to wild-type RcSxph” value in data set [2] amounted to 4.43 kcal/mol.
